Drawing on patent publication US20190367620A1 (Merck KGaA, published 2019), this text covers Kd and ΔΔGmut for one molecule.

Experiment [1] has as its target T1, FGFR1 D2 point mutant A58G (human, UniProt P11362 22-254).
T1 chain: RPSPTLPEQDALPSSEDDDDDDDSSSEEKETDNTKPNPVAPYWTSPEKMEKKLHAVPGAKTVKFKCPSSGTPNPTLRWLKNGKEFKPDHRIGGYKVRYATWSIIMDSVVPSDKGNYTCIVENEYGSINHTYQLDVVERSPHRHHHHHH
Briefly: SPR as in Example 1.8. The essentials:
(§1)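 Anti-FGFR1 mAb captured via immobilised anti-human Fc to ~200 RU; 2-fold dilutions of His-tagged FGFR1 (wild-type or HEK-expressed point mutants, Ala→Gly for native Ala) injected at 25° C in HBS-EP+. kon/koff from 1:1 Langmuir fit; KD = koff/kon.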

In experiment [2] the target is T2, FGFR1 D2 point mutant A99G (human, UniProt P11362 22-254).
T2 chain: T1 chain with G58A, A99G
Briefly: SPR as in Example 1.8. Put shortly: as §1

Experiment [3] has as its target T3, human FGFR1b-IIIb extracellular domain with a HIS tag (human).
T3 construct: also called huFGFR1b-IIIb; hFGFR1b-IIIb
T3 chain: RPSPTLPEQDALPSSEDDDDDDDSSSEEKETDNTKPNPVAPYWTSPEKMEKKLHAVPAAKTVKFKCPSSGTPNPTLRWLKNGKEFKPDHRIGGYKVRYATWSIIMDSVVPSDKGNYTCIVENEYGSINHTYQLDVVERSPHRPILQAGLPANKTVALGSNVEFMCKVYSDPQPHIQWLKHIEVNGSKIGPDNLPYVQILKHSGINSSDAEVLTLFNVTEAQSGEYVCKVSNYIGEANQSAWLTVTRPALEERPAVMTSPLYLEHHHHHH
Nature of the experiment: SPR as in Example 1.8. Put shortly: as §1

Experiment [4] addresses T4, FGFR1 D2 point mutant R97A (human, UniProt P11362 22-254).
T4 chain: T1 chain with G58A, R97A
Nature of the experiment: SPR as in Example 1.8. Put shortly:
as §1

Experiment [5] addresses T5, FGFR1 D2 point mutant A59G (human, UniProt P11362 22-254).
T5 chain: T1 chain with G58A, A59G
Nature of the experiment: SPR; free energy change relative to wild-type D2. As for the experimental part:
(§2) Binding affinities of anti-FGFR1 antibodies to FGFR1 were measured by Surface Plasmon Resonance (SPR) using a GE Healthcare BIAcore 4000 instrument as follows. Goat anti-human Fc antibody (Jackson ImmunoResearch Laboratories #109-005-098) was first immobilized on BIAcore carboxymethylated dextran CM5 chip using direct coupling to free amino groups following the procedure described by the manufacturer. Antibodies were then captured on the CM5 biosensor chip to achieve approximately 200 response units (RU). Binding measurements were performed using the running HBS-EP+ buffer. A 2-fold dilution series of His-tagged FGFR1 proteins were injected at a flow rate of 30 μl/min at 25° C. Association rates (kₒₙ, per mol/s) and dissociation rates (koff, per s) were calculated using a simple 1:1 Langmuir binding model (Biacore 4000 Evaluation Software). The equilibrium dissociation constant (KD, mol) was calculated as the ratio of koff/kₒₙ.
(§3) To obtain a finer, residue-level mapping of the epitope and to complement the HD exchange data, molecular modelling and manual inspection of the crystal structure of FGFR1 [(Beenken et al. 2012); PDB record 3OJV] was used to select solvent exposed residues within and around the epitope identified by HD exchange. The selected residues were mutated either to alanine (large to small) or to glycine if the selected residue was alanine. In total 35 point mutants were designed, expressed and purified in HEK cells, and tested for binding to mAb #A08 using surface plasmon resonance as described in Example 1.8. The affinity of the antibody for wild-type and each mutant was determined and used to calculate the contribution of each epitope residue to the binding energy.
(§4) Variant were compared to wild-type D2. The change in the Gibbs free energy of binding of mutant relative to the wild-type D2 construct (ΔΔGₘᵤₜ) was derived from the ratio of the wild-type and mutant KD.
(In general: In SPR one partner is held on a chip, and binding of the other changes the refractive index at the surface.)

In experiment [6] the target is T6, FGFR1 D2 point mutant K51A (human, UniProt P11362 22-254).
T6 chain: T1 chain with K51A, G58A
Briefly: SPR; free energy change relative to wild-type D2. As for the experimental part:
as §2, §3, §4

The target in experiment [7] is T7, FGFR1 D2 point mutant K86A (human, UniProt P11362 22-254).
T7 chain: T1 chain with G58A, K86A
Nature of the experiment: SPR; free energy change relative to wild-type D2. As for the experimental part:
as §2, §3, §4

The target of experiment [8] is T8, FGFR1 D2 point mutant T100A (human, UniProt P11362 22-254).
T8 chain: T1 chain with G58A, T100A
Nature of the experiment: SPR; free energy change relative to wild-type D2. As for the experimental part: as §2, §3, §4

The target in experiment [9] is T9, FGFR1 D2 point mutant E50A (human, UniProt P11362 22-254).
T9 chain: T1 chain with E50A, G58A
Nature of the experiment: SPR; free energy change relative to wild-type D2. As for the experimental part: as §2, §3, §4

Experiment [10] concerns the target T10, FGFR1 D2 point mutant K52A (human, UniProt P11362 22-254).
T10 chain: T1 chain with K52A, G58A
Briefly: SPR; free energy change relative to wild-type D2. As for the experimental part:
as §2, §3, §4

Where a chain is given by its changes, count along the chain named.

B1: mAb #A08 (antibody, V domains shown)
VH: EVQLQESGPGLVKPSGTLSLTCAVSGGSISSNNWWSWVRQPPGKGLEWIGEIYHSGSTSYNPSLKSRVTISVDKSKNQFSLKLNSVTAADTAVYYCARGTDWFDPWGQGTLVTVSS
VL: QAVLTQPPSVSVAPGQTARITCGGNNIGSESVHWYQQKPGQAPVLVVYDDSDRPSGIPERFSGSNSGNTATLTISRVEAGDEADYYCQVWDSTSDHRVFGGGTKLTVL
notes: Only variable domains are tied to the name mAb #A08 (hit); also called #A08 hit; mAb #08
For B1, the Kd amounted to 2.2 nM in experiment [1], 0.18 nM in [2], 0.47 nM in [3] and 4.25 nM in [4]. The ΔΔGmut in [5] was 1.78 kcal/mol; in [6], 0.27 kcal/mol; in [7], -0.06 kcal/mol; in experiment [8], 0.12 kcal/mol; in [9], 0.02 kcal/mol; in experiment [10], 0.11 kcal/mol.

Broadly, the Kd is the constant that tells how readily two partners part at equilibrium. Higher therefore signals a looser complex.
